Assay results: patent US20190218309A1 (Chugai, published 2019)

Tests used:
[1] = molecular target: T1, soluble mouse FcRn (mFcRn), with mouse β2-microglobulin (mouse, UniProt Q61559 22-290; P01887 21-119); assay: SPR (Biacore T100), mouse FcRn immobilised on a CM4 chip, Fv4-IgG1 50 µg/mL alone or with hsIL6R 12.5 µg/mL as analyte, pH 7.4, 25 °C; bound amount normalised to 100 [i]
T1 sequence: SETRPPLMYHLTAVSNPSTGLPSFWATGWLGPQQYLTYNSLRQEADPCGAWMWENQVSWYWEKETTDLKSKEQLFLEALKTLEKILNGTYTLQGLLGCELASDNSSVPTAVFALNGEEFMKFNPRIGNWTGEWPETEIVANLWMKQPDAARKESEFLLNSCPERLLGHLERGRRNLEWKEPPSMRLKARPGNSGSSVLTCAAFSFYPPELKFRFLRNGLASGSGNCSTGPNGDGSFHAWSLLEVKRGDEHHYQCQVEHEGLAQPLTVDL
T1 sequence (b2m): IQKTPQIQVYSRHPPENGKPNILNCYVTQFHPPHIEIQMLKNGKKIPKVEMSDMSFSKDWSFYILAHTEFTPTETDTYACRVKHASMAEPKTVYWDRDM
Procedure: (§1) Binding of an antigen-antibody immune complex with FcRn was assessed using Biacore T100 (GE Healthcare). […] Subsequently, a 20 mM Tris-HCl, 150 mM NaCl, pH 9.0 or pH 9.5 solution was injected to regenerate the sensor chip. A 50 mmol/L Na-Phosphate (phsophoric acid), 150 mmol/L NaCl, 0.05% Tween20, pH 7.4 buffer was used as the running buffer, and binding between the antigen-antibody immune complex and FcRn was measured at 25° C.

[2] = molecular target: T2, soluble human IL-6 receptor (hsIL-6R) (human, UniProt P08887 20-357); assay: ECL sandwich: biotinylated Fv4-IgG1 on streptavidin plate captures hsIL-6R, detected with ruthenium-labelled PHX-F29
T2 construct: also called hIL-6R
T2 sequence: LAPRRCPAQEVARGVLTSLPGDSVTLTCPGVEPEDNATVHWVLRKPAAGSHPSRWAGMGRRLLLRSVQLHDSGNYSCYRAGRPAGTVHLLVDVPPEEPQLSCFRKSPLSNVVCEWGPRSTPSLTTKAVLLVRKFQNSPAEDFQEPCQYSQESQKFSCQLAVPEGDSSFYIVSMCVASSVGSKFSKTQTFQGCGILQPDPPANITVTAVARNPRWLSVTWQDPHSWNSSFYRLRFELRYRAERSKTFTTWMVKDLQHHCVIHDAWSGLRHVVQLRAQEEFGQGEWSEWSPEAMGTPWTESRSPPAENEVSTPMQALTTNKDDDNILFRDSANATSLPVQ
Procedure: Whether or not two types of antibodies can bind to a single antigen simultaneously was evaluated by an electrochemiluminescence method. […] After washing, 100 μL of the hsIL-6R solutions prepared at 0, 0.2, 1, 5, and 25 μg/mL was added, and they were allowed to react at room temperature for one hour. […] After washing, 150 μL of Read Buffer T (×4) (Meso Scale Discovery) was dispensed into each well, and this was immediately followed by chemiluminescence measurement using the SECTOR IMAGER 2400 Reader (Meso Scale Discovery).

[3] = molecular target: T2, soluble human IL-6 receptor (hsIL-6R); assay: SPR (Biacore T100), 25 C, pH 7.4; Fv4-F22 10 µg/mL with or without hsIL6R 2.5 µg/mL over immobilized hFcRn
Procedure: (§2) Binding of an antigen-antibody immune complex with human FcRn was assessed using Biacore T100 (GE Healthcare).
(§3) Subsequently, a 20 mM Tris-HCl, 150 mM NaCl, pH 9.0 or pH 9.5 solution was injected to regenerate the sensor chip. A 50 mmol/L Na-Phosphate (phosphoric acid), 150 mmol/L NaCl, 0.05% Tween20, pH 7.4 buffer was used as the running buffer, and binding between the antigen-antibody immune complex and FcRn was measured at 25° C.

[4] = molecular target: soluble human FcRn (hFcRn), complex with β2-microglobulin (human, UniProt P55899 24-290; P61769 21-119); assay: SPR (Biacore T100), human FcRn immobilised on a CM4 chip, Fv4-F22 10 µg/mL alone or with hsIL6R 2.5 µg/mL as analyte, pH 7.4, 25 °C; bound amount normalised to 100 [i]
Chain of soluble human FcRn (hFcRn), complex with β2-microglobulin (P55899 24-290 limits assumed, chain 1 of 2): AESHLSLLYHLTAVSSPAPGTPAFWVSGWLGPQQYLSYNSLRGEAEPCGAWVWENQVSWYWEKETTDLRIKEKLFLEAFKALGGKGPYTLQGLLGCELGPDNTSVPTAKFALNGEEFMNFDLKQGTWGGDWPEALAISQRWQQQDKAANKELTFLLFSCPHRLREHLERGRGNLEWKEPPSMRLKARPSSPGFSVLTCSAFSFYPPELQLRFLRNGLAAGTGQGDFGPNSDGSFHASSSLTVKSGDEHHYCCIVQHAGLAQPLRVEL
Chain of soluble human FcRn (hFcRn), complex with β2-microglobulin (P61769 21-119 limits assumed, chain 2 of 2): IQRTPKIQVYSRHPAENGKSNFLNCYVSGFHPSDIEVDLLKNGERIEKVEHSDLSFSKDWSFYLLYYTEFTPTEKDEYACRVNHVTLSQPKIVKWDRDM
Procedure: as §2, §3

[5] = molecular target: T1, soluble mouse FcRn (mFcRn), with mouse …; assay: SPR (Biacore T100), mouse FcRn immobilised on a CM4 chip, clone 278-IgG1 50 µg/mL as analyte, pH 7.4, 25 °C; bound amount normalised to 100 [ii]
Procedure: as §1

[6] = molecular target: T3, human IgE (variable region derived from an anti-human glypican3 antibody) (human); assay: SPR (Biacore T200), 37 C; ratio of KD values
T3 construct: also called hIgE
T3 sequence (heavy, as listed by the source): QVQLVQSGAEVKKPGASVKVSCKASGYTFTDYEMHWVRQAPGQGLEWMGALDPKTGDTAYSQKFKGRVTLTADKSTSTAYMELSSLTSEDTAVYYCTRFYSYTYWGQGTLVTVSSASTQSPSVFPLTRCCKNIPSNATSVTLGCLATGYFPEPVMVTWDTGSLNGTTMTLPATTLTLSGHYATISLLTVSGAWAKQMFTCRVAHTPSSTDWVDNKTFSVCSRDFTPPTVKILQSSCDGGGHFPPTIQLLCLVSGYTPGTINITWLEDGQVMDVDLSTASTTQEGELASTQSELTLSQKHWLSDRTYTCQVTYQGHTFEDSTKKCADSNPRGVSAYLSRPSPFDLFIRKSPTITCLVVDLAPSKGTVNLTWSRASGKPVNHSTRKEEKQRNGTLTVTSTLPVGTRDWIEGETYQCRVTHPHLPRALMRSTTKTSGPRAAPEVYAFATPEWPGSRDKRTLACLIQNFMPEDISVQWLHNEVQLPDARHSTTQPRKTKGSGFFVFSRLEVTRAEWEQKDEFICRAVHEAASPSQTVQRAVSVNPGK
Procedure: Running buffers used in the assay were:
A chemically-synthetized peptide having a human glypican 3 protein-derived sequence (SEQ ID NO: 47) whose C-terminal Lys is biotinylated (hereinafter abbreviated as “biotinylated GPC3 peptide”) was added in an appropriate amount and immobilized onto Sensor chip SA (GE Healthcare) based on the affinity between biotin and streptavidin. Human IgE was immobilized onto the chip by injecting it at an appropriate concentration so as to be trapped by the biotinylated GPC3 peptide. […] Then, 10 mmol/L glycine-HCl (pH 1.5) was injected to regenerate the sensor chip. The interaction was always measured at 37° C. The measurement result was analyzed by curve fitting using Biacore T200 Evaluation Software (GE Healthcare) to calculate the association rate constant ka (1/Ms) and dissociation rate constant kd (1/s). The dissociation constant KD (M) was calculated from the above-described constants.

[7] = molecular target: T4, GC-hIgA-MYC (human); assay: SPR (Biacore T200), 25 C, pH 7.4, 1.2 mM Ca; 200 nM antibody with or without 200 nM antigen over captured human FcγRIIIaV; immune complex shown by slower dissociation
T4 construct: also called hIgA-v2
T4 sequence (heavy, as listed by the source): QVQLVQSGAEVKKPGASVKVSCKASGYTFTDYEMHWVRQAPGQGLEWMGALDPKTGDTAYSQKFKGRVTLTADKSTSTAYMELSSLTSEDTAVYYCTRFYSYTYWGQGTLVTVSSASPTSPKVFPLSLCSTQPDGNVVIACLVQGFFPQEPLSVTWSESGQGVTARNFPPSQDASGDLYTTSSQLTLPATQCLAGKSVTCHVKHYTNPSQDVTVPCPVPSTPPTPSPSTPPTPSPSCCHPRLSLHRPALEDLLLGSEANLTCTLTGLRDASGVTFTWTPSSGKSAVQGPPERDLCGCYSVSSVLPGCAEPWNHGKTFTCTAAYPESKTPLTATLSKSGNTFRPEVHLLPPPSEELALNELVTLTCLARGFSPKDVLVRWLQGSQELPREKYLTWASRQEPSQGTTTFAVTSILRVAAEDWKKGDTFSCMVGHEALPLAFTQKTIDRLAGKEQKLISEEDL

[8] = molecular target: Human IgA (hIgA), H (WT)-IgA1 / L (WT) (human); assay: >=
Chain of Human IgA (hIgA), H (WT)-IgA1 / L (WT) (human) (VH, as listed by the source): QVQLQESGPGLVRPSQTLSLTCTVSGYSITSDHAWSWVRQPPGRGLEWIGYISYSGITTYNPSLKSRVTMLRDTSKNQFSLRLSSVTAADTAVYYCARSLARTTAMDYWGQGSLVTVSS

B1: Fv4-IgG1 (antibody)
heavy: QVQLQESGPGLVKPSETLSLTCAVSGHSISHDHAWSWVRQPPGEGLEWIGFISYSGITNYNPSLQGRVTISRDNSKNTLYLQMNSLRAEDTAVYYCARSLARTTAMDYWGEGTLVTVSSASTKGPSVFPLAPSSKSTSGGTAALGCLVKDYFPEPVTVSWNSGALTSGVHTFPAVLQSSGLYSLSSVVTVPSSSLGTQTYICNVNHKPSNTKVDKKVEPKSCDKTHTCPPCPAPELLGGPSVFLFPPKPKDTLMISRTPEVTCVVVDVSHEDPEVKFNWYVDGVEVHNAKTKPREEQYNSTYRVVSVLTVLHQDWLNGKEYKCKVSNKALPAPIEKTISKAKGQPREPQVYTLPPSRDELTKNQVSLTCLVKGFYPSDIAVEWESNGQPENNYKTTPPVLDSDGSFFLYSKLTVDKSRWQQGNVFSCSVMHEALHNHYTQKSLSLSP
light: DIQMTQSPSSLSASVGDSVTITCQASTDISSHLNWYQQKPGKAPELLIYYGSHLLSGVPSRFSGSGSGTDFTFTISSLEAEDAATYYCGQGNRLPYTFGQGTKVEIERTVAAPSVFIFPPSDEQLKSGTASVVCLLNNFYPREAKVQWKVDNALQSGNSQESVTEQDSKDSTYSLSSTLTLSKADYEKHKVYACEVTHQGLSSPVTKSFNRGEC
notes: pH-dependent anti-human IL-6 receptor antibody
B1: binds [1]; binds [2].

B2: Fv4-F22 (antibody, human IgG1, kappa)
heavy: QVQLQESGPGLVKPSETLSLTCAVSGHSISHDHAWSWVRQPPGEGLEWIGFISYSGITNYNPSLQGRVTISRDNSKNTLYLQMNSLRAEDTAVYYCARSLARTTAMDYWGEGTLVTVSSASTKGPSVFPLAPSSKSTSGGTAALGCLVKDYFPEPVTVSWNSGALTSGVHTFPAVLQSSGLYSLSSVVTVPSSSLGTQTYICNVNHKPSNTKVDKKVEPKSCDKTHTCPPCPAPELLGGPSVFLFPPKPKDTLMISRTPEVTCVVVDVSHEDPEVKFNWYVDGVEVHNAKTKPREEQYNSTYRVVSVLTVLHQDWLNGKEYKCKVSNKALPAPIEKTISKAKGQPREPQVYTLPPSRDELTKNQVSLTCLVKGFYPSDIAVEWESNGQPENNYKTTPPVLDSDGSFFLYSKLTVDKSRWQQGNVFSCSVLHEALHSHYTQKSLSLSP
light: B1 light
B2: binds [3]; binds [4].

B3: clone 278 (antibody, human IgG1, kappa)
heavy: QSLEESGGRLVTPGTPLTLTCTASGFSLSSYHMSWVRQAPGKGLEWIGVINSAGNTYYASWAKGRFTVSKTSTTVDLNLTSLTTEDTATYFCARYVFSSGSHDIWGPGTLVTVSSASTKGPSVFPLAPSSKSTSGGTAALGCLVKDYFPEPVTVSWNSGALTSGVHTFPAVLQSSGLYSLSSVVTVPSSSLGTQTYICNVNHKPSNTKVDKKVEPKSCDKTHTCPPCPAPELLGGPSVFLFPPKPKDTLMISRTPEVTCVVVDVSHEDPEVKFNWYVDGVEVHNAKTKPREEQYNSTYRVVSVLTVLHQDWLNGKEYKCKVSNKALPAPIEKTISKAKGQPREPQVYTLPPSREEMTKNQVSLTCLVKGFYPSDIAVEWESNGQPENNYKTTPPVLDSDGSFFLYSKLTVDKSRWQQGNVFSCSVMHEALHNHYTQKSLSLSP
light: AYDMTQTPASVEVAVGGTVTIKCQASQSIGSWLAWYQQKPGQPPKELIYGTSTLESGVPSRFIGSGSGTEFTLTISGVECADAATYYCQQGYSEDNIDNAFGGGTEVVVKRTVAAPSVFIFPPSDEQLKSGTASVVCLLNNFYPREAKVQWKVDNALQSGNSQESVTEQDSKDSTYSLSSTLTLSKADYEKHKVYACEVTHQGLSSPVTKSFNRGEC
notes: pH-dependent anti-human IgE antibody with a human IgG1 heavy chain constant region and a human light chain constant region
With B3 the binding result [5] was “binds”, the “pH dependency, KD (pH 5.8, 1.2 mM Ca)/KD (pH 7.4, 1.2 mM Ca)” value [6] was 842 ratio and the “pH/Ca dependency, KD (pH 5.8, 3 µM Ca)/KD (pH 7.4, 1.2 mM Ca)” value [6] was 1640 ratio.

B4: GA2-IgG1 (antibody, V domains shown)
VH: QVQLVQSGAEVKKPGSSVKVSCKASGGTFSSYAISWVRQAPGQGLEWMGGIIPIFGTANYAQKFQGRVTITADESTSTAYMELSSLRSEDTAVYYCARPRWETAISSDAFDIWGQGTMVTVSS
VL: DIQMTQSPSSLSASVGDRVTITCRASQSISDDLNWYQQKPGKAPKLLIYEASNLQSGVPSRFSGSGSGTDFTLTISSLQPEDFATYYCQQHSSSPLTFGQGTKVEIKR
notes: also called GA-IgG1
In the case of B4, the binding result [7] is reported as “binds” and the “Ca-dependent binding activity (fold)” value [8] is reported as 100 times.
